Data set [1] deals with T1, IL-2Rαβγ triple receptor (UniProt P01589 22-272; P14784 27-551; P31785 23-369).
T1 sequence (looked up) 1: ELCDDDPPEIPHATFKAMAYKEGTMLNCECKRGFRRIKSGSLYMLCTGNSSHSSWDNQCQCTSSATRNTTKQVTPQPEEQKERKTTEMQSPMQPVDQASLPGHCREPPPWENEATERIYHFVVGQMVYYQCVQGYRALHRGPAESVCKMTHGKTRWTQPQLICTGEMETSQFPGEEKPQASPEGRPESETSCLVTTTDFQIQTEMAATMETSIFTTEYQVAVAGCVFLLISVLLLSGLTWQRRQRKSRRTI
T1 sequence (looked up) 2: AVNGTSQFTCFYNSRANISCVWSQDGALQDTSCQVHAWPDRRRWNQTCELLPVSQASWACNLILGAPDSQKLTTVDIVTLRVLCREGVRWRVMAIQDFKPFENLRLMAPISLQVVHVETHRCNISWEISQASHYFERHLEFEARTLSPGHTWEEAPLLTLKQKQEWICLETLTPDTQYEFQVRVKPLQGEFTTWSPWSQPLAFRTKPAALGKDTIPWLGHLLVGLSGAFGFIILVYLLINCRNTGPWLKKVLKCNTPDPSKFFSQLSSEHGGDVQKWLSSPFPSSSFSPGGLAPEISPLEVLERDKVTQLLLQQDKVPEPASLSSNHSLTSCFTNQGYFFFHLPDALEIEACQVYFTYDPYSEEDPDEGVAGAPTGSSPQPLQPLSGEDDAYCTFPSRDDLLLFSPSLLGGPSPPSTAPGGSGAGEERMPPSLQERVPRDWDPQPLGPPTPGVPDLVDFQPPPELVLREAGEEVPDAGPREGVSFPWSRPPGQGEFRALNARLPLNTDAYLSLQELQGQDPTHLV
T1 sequence (looked up) 3: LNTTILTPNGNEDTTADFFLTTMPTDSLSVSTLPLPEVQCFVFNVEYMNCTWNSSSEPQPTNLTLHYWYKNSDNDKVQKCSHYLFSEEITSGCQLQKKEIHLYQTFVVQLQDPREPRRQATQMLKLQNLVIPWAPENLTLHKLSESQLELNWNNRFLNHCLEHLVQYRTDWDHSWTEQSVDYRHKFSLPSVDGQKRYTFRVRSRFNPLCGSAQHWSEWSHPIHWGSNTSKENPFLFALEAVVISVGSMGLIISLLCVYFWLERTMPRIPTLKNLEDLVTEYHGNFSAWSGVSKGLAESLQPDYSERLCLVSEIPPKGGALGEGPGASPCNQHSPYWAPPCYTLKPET
Nature of the data set: cell-based or functional assay.

The nature of data set [2]: Effects on body weight and physiological characteristics of mice. The note with it: 1 mg/kg s.c. once every three days, three times.
Experimental: SPF grade Balb/c mice were purchased, with 3 mice in each group. Administration was started on the day of grouping. The test substance or PBS (negative control group) was administered subcutaneously at a dose of 1 mg/kg, once every three days, for a total of three times. The mice were weighed before each administration and three days after the third administration .
Data set [3] in a line: Pharmacokinetic study in mice, single administration, plasma concentration by ELISA. The settings on record: 1 mg/kg s.c. single administration.
Experimental: Balb/c mice were purchased, with 4 mice in each group. Each IL-2 mutant to be tested was administered subcutaneously once at a dose of 1 mg/kg. Blood was collected from the orbit at different time points after administration, and the plasma was separated and the plasma drug concentration was detected by ELISA. The main pharmacokinetic parameters were calculated, and C-T curve was plotted.
In data set [4] the test system is Treg cells. Nature of the data set: P-STAT5 activation in Treg cells of human PBMCs (flow cytometry). The note with it: P-STAT5 MFI in CD3+/CD4+/CD25+ cells of human PBMCs, 30 min stimulation. Format: cell-based. The procedure:
In the example, the activation effect of each mutant prepared in Example 6 on P-STAT5 in different cell subsets (Tregs, CD8+T cells, NK cells) from human PBMCs (Miaoshun Biotechnology) was detected.
Human PBMC cells were thawed and resuspended to 1.5×10^6 cells/ml in RPMI1640 medium containing 10% FBS. 100 µl was added to each well of a V-bottom 96-well culture plate. Each IL-2 mutant prepared in Example 6 was diluted 10-fold in series: 1000 nM was used as the working concentration for the first well, and then 100 µl/well of each serial dilution was added to each cultured cell, stimulated at 37°C for 30 min, and the reaction was terminated on ice. The cells were treated with a commercial fixative and permeabilization agent (BD biosciences 558049 & 558050), and stained with antibodies against CD3, CD4, CD25, and CD8 according to conventional methods. P-STAT5 antibody staining was also performed (Table 7) to detect the mean fluorescence intensity (MFI) of P-STAT5 in CD3+/CD4+/CD25+ (Treg cells) and CD8+/CD3+ cells ([…]) by flow cytometry.

For data set [5], the target named is T1, IL-2Rαβγ triple receptor. Nature of the data set: cell-based or functional assay. The source holds these as a separate data set.
The target in data set [6] is T1, IL-2Rαβγ triple receptor. Nature of the data set: cell-based or functional assay. This is another data set of the same source.

Read-outs that look alike come from different tables or passages of the source. Side chains are listed from the residue outwards. maleimide = maleimide group on PEG that conjugates to a cysteine thiol

In data set [1], “rh IL-2 (from UniProt P60568 21-153) (ligand)” showed an Activation of IL-2αβγ receptor EC50 (STAT5 luciferase reporter gene assay) of 0.00848 nM, an Activation of IL-2αβγ triple receptor EC50 (STAT5 luciferase reporter gene assay) of 0.00411 nM and an EC50 for activation of the IL-2αβγ triple receptor (STAT5 luciferase reporter gene assay) of 0.00543 nM.

Regarding “80K-1PEG-IL2-N88R-D109C: IL-2 mutant N88R, D109C, conjugation site 109, PEG molecular weight 80kD”, in data set [2], the “toxic side effects on mice” value was “relatively obvious toxic side effects” and the “visual observation of the mice” value is “listless, had poor motility”. For the same molecule, the “body weight compared with negative control” value in data set [2] (three days after the third dose) is “significantly lower than that of the negative control”.

With “40K-1PEG-IL2-N88R-N77C: IL2-N88R-N77C with 40 kDa PEG conjugated to the cysteine at position 77”, in data set [3], the AUC inf is 307.71336 ± 53.89144 µg·h/mL, the AUClast was determined as 306.70767 ± 53.98797 µg·h/mL, the CL was determined as 3.32±0.5 and the Cmax came out at 6581.76 ± 1168.04 ng/mL. In data set [3], the MRT was 31.57 ± 1.16 h, the T1/2 came to 11.33 ± 0.97 h and the Tmax was 8 to 24 h. In data set [4], the concentration giving a half-maximal response (EC50) worked out at 38 nM.

B1: 80k-1PEG-IL2-N88R-N33C (ligand)
chain: APTSSSTKKTQLQLEHLLLDLQMILNGINNYKC(PEG 80 kDa)PKLTRMLTFKFYMPKKATELKHLQCLEEELKPLEEVLNLAQSKNFHLRPRDLISRINVIVLELKGSETTFMCEYADETATIVEFLNRWITFSQSIISTLT
On to B1, for which the “EC50 for activation of the IL-2αβγ triple receptor (STAT5 luciferase reporter gene assay, 293EC18/αβγ/JAK3/STAT5 cells)” value in data set [5] worked out at 0.00386 nM.

B2: 20K-1PEG-IL2-N88R-N77C: IL-2 mutant N88R, N77C, conjugation site 77, PEG molecular weight 20kD (conjugate)
chain: APTSSSTKKTQLQLEHLLLDLQMILNGINNYKNPKLTRMLTFKFYMPKKATELKHLQCLEEELKPLEEVLNLAQSKC(PEG 20 kDa)FHLRPRDLISRINVIVLELKGSETTFMCEYADETATIVEFLNRWITFSQSIISTLT
In data set [3], B2 displayed an AUC inf of 22.88236 ± 3.52254 µg·h/mL, an AUClast of 21.76228 ± 3.58639 µg·h/mL, a CL of 44.4±6.99 and a peak concentration (Cmax) of 1276.71 ± 273.3 ng/mL. For the same molecule, in data set [3], the mean residence time (MRT) was 11.68 ± 0.08 h, the T1/2 stood at 7.62 ± 0.57 h and the time of peak concentration (Tmax) was in the range of 4 to 8 h. This molecule returned a half-maximal effective concentration (EC50) in data set [4] of 6.14 nM.

B3: 20K-1PEG-IL2-N88R-N77C (ligand)
chain: APTSSSTKKTQLQLEHLLLDLQMILNGINNYKNPKLTRMLTFKFYMPKKATELKHLQCLEEELKPLEEVLNLAQSKC([maleimide-PEG 20 kDa])FHLRPRDLISRINVIVLELKGSETTFMCEYADETATIVEFLNRWITFSQSIISTLT
modifications: not fully specified
With B3, the “EC50 for activation of the IL-2αβγ triple receptor (STAT5 luciferase reporter gene assay)” value in data set [6] was found to be 0.0705 nM.

B4: 20K-1PEG-IL2-N88R-D109C (ligand)
chain: APTSSSTKKTQLQLEHLLLDLQMILNGINNYKNPKLTRMLTFKFYMPKKATELKHLQCLEEELKPLEEVLNLAQSKNFHLRPRDLISXINVIVLELKGSETTFMCEYAXETATIVEFLNRWITFSQSIISTLT
modifications: not fully specified; one 20 kD PEG-maleimide conjugated to Cys 109
For B4, the “EC50 for activation of the IL-2αβγ triple receptor (STAT5 luciferase reporter gene assay)” value in data set [6] amounted to 0.0786 nM.

B5: 80K-1PEG-IL2-N88R-D109C (ligand)
chain: APTSSSTKKTQLQLEHLLLDLQMILNGINNYKNPKLTRMLTFKFYMPKKATELKHLQCLEEELKPLEEVLNLAQSKNFHLRPRDLISXINVIVLELKGSETTFMCEYAXETATIVEFLNRWITFSQSIISTLT
modifications: one 80 kD PEG-maleimide conjugated to Cys 109
For the molecule B5, the “EC50 for activation of the IL-2αβγ triple receptor (STAT5 luciferase reporter gene assay)” value in data set [6] is 0.407 nM.

B6: 80k-1PEG-IL2-N88R-S75C (ligand)
chain: APTSSSTKKTQLQLEHLLLDLQMILNGINNYKNPKLTRMLTFKFYMPKKATELKHLQCLEEELKPLEEVLNLAQC(PEG 80 kDa)KNFHLRPRDLISRINVIVLELKGSETTFMCEYADETATIVEFLNRWITFSQSIISTLT
For the molecule B6, the “EC50 for activation of the IL-2αβγ triple receptor (STAT5 luciferase reporter gene assay, 293EC18/αβγ/JAK3/STAT5 cells)” value in data set [5] amounted to 1.26 nM.

These data come from patent EP4631972A1, “SITE-SPECIFIC COUPLED PEGYLATED INTERLEUKIN-2 MUTANT WITH RECEPTOR AFFINITY PREFERENCE AND USE THEREOF” (priority 2022, dated 2024).
